Measured values taken from patent US6506874.
Where a chain is given by its changes, count along the chain named. Names and notes keep the numbering of the source.

B1: IGF-I D12A (on G1S-A70V) displayed on phage (ligand)
chain: SPETLCGAELVAALQFVCGDRGFYFNKPTGYGSSSRRAPQTGIVDECCFRSCDLRRLEMYCAPLKPAKSV
notes: not shown: Display partner: M13 gene III protein fragment (residues 249-406) and the junction to it
B2: IGF-I G32A (on G1S-A70V) displayed on phage (ligand, not shown: large carriers)
chain: B1 chain with A12D, G32A
B3: IGF-I P2A (on G1S-A70V) displayed on phage (ligand)
chain: B1 chain with P2A, A12D
notes: not shown: M13 gene III fragment (residues 249-406) used as phage-display carrier, and its junction to IGF-I
B4: IGF-I Y31A (on G1S-A70V) displayed on phage (ligand, not shown: large carriers)
chain: B1 chain with A12D, Y31A
B5: IGF-I D45A (on G1S-A70V) displayed on phage (ligand)
chain: B1 chain with A12D, D45A
notes: as for B3
B6: IGF-I E9A (on G1S-A70V) displayed on phage (ligand, not shown: large carriers)
chain: B1 chain with E9A, A12D
modifications: disulfide (positions not given here); not fully specified; also: displayed on M13 phage as gene III fusion
B7: IGF-I P28A (on G1S-A70V) displayed on phage (ligand, not shown: large carriers; small tags and cut ends)
chain: B1 chain with A12D, P28A
B8: IGF-I G30A (on G1S-A70V) displayed on phage (ligand, not shown: large carriers)
chain: B1 chain with A12D, G30A
B9: IGF-I S33A (on G1S-A70V) displayed on phage (ligand, not shown: large carriers)
chain: B1 chain with A12D, S33A
B10: IGF-I G7A (on G1S-A70V) displayed on phage (ligand, not shown: large carriers)
chain: B1 chain with G7A, A12D
modifications: disulfide (positions not given here); not fully specified; also: displayed on M13 phage as gene III fusion
B11: IGF-I S34A (on G1S-A70V) displayed on phage (ligand, not shown: large carriers)
chain: B1 chain with A12D, S34A
B12: IGF-I T29A (on G1S-A70V) displayed on phage (ligand, not shown: large carriers)
chain: B1 chain with A12D, T29A

What was measured:
[1] = biological target: T1, human IGFBP-1 (human, UniProt P08833 26-259); experiment: competitive phage ELISA
T1 construct: Secreted recombinant protein
T1 sequence (looked up): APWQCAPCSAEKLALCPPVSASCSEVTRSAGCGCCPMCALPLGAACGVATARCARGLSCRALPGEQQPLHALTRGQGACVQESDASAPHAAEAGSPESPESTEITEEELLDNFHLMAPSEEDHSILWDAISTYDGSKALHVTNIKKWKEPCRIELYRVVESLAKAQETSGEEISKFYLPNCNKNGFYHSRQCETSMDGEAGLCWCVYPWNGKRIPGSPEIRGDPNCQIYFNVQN
Description: (§1) Phage particles were harvested and resuspended in PBS buffer as described in Lowman, H. B., "Phage Display of Peptide Libraries on Protein Scaffolds," in Cabilly, S. (ed.), *Combinatorial Peptide Library Protocols* (Humana Press Inc.: Totowa, N.J., 1998), pp. 249–264. Then phage concentrations were normalized to yield a maximal ELISA signal of 0.2–0.4 for each mutant (Lowman, in Cabilly, S. (ed.), supra). Threefold serial dilutions of soluble competitor were prepared on non-absorbent microtiter plates (Nunc, F, 96 wells) with binding buffer (0.5% TWEEN™ 20/PBS) containing phage at the previously-determined concentrations. The dilution range of competitor protein extended over six orders of magnitude, starting at 5 μM for IGFBP-1 and 500 nM for IGFBP-3. After blocking, the plates containing immobilized target were washed with 0.05% TWEEN™ PBS buffer and subsequently incubated with 80 μl/well of the premixed phage-competitor solutions for 1 hour at room temperature. […] Numbers in Table I represent mean ±standard deviation of individually assessed $IC50$ values.
(§2) At least two different clones of every mutant were tested.

[2] = biological target: T2, recombinant human IGFBP-3 (human, UniProt P17936 28-291); experiment: competitive phage ELISA, soluble IGFBP-3
T2 construct: Secreted recombinant protein
Description: as §1, §2

[3] = biological target: T1, human IGFBP-1; experiment: competitive phage ELISA, soluble IGFBP-1
Description: as §1, §2

T2 sequence (P17936 28-291 limits assumed): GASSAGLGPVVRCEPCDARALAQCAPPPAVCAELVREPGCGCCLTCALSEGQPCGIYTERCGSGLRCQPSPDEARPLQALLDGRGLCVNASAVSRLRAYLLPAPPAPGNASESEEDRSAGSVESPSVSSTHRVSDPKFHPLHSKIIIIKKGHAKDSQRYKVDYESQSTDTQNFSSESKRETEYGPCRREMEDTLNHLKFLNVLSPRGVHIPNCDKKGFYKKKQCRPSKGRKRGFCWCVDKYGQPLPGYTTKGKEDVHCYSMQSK

Row | Binder | fold increase in binding [1] | IC50 [2] | IC50 [3]
1 | B1 | ~2 fold |  | 
2 | B2 |  | 0.76 nM | 10.9 nM
3 | B3 |  | 0.81 nM | 11 nM
4 | B4 |  | 0.73 nM | 6.8 nM
5 | B5 | ~2 fold |  | 
6 | B6 |  | 1.32 nM | 8.6 nM
7 | B7 |  | 1.41 nM | 9.3 nM
8 | B8 |  | 0.58 nM | 7.1 nM
9 | B9 |  | 1.01 nM | 9.1 nM
10 | B10 |  | 4.58 nM | 
11 | B11 |  | 1.65 nM | 9.5 nM
12 | B12 |  | 1.23 nM | 7.3 nM
